Test: soluble on expression in E. coli; label from the status in PepcDB or PDB records

| Sequence | soluble on expression in E. coli |
| --- | --- |
| MSQFGGGKPPGQWHRPAAPGGAPQLSGFSAVNFGGVPMVGMGVPMGMVNQAAFSSQGVLGMQGIMGAVPQQSLPQQQPNFQQQNSLQQGTNMQQNSGAKNQRTFVGVVTKMLDTYGFVDDDVFFQHSVIRGSHPRVGDKVMVEANYNPSMPFKWNAYRIQLLNAATQQEPARQAPQQQQMHQPQRGGQESQRWGAAPASGTSDRADRNGGARGNDSPLHRSSAARRHSPPPRRASPPRRTSSPKRDARPAREIRDSREPREVRRSPPPRRAASPRKASSPSAPAKNDRKRERSPSGSVAPSVRRESASPPRRRARIIPRYECRAQKPALLSPIVSGSVLRHRYSKLYLPSDYVDLSFDWVRSFQLDLSLDLSNPIQFHVFNKDVDFIGEEEIQDLDPEDADHRHQVKVLLLSHAGKSEVVKKAFCLMADGTTDDHQEPQSLLKNLHFLVGARGKETMGIGGSWSPSQDGADPNSATTMIRTAVRTTKSLTGIDLSSVSQWFSMVQIRYYRADKQRIDHVNYLLPDTQSLALDDAQWMLAETKIAEQLKAKLANVDALKIEEDEPPVVMMVEESESVVAAAAAAADVVPEQSIPDVKKEEELQAEEPKVLDNVKESIVLLWAEESDVVADVSMNSTTDADNSEAPAAENGQGPTNWSNLDPKSMKVAELRVELELRGLETKGIKTLLVQRLQTALDTEKAAEASVAARDVEMRDAAENAVKQEGGEENPAAFIAPSIEETKAKTEAEAKKEAEEAEKRKKKEEQLEKEKKEKREALEKHYQLPKDKKILVFPSKSFKSGKFDCKVLSLSSLLDYRHDDNKENQFEVSLFAEAFKEMIERNAAFTIYETLANCGDRDAEKKRRDEAREKPVEPKEPKEPAETTEKAAEGEEKKDEKEEKRDEKKDEKREEKREKVERIDLKSVVANRTVYEAFSLFDSNLCGYLTEKDIEEILYNGEFGISRGQIQKLAKKLSVRDKINYRHLTDVLTDMDGNVRHTPGGADDVVETDDLIRGFGYNLAKSMEPADSGAAVKSSEVSASSDGVVIINGSAVNVVQKMKLLKQVEKERDEAKSTVSEQLSLIEQLREAKAEIDKKKKDIDSHYHKSNKKLNETSAQLKSTQDENSALKQALQDCKRHADRIFSVVEKVMPPPPKKEEKSKKDEKEKTDKKDDKVSEKSAEKSTEEPSQEVPASAEQAAEPSTEAEPIVIDESEDKDAEVVEESKE | not soluble |
| MSQFISLTQYQLIEVQGADAEKYLQGQLTSDVVRLASGATTLTAHCDPKGKMNAIYRLFKVSSEQFFLLVKKDILPSGLDALKKYAVFSKVSFDLRDWQIIGVIGEKCGKITPNFSLEIDEKRSILLNETELPVNFNGDEKIWEVADIQAGLPNLSPQTQNEFIPQALNLQAIEQAISFTKGCYIGQETVARAKYRGANKRAMFIFKVQTQQEAEIGSEIEMQLEANWRKTGTITSAVNLDGVLWLQVVMNNDIDSEQQFRLLNSEILLERVQLPYSITE | not soluble |
| MSQIISTLNNIDLVTQDKVNLISNMQIQAKYENAEYKSFIDQLIDNLNTTRSIDIYNLFLSLNSEICLNLDTVDNISKIISSYLSILNTNFTRISPSESKQKNQLAEKGINKFLVTMDANFAQMQNQDKLLPNNIDSIIEIVQEVIIFFEKNNLNYNSDFKIQLNKTLRKIKSSLILKDQKNDTYSDKESINQVEATITDQKTIQGSEKWKTLIEKIEVLKALVESERIFETSIVYNDIQNLLVNFDPKEYFPEIFFPLYKKIAPFIGNIHKNIDYYSSSIQWSIAQKMYNIDYKSFLDTLEKMPENNFLNSSSDITKNFFYETSSEVEKTPIEEHKIIADTDAIKEEIVIKQRTNNKKNQNDPVEKISNKIDEDYFEDLFDI | not soluble |
| MSQISIILPTYNVEKYIARALESCINQTFKDIEIIVVDDCGNDKSIDIAKEYASKDDRIKIIHNEENLKLLRARYEGAKVATSPYIMFLDSDDYLELNACEECIKILDMGGGGKIDLLCFEAFITNAKKSIKKLNIKQGKYNNKEFTMQILKTKNPFWTMWAKIIKKDIYLKAFNMLNLKKEIKINMAEDALLYYPLTILSNEIFYLTQPLYTQHVNSNSITNNINSLEANIQEHKIVLNVLKSIKNKKTPLYFLIIYLLKIQLLKYEQNFNKRNINLIYYKINILYQKYQFKWKKFLYNLIP | not soluble |
| MSQLINLPMDQILYLSTSDIKHHVHLQTIHTLMDIRANLADFKKIHKKLYPCHRSYIVNTDMIISVNKTNYEATLINGQVLPVSRMKIGKIAQIVEERGRLEHHHHHH | not soluble |
| MSQLMQLKDVAESTRLGPLSGEVSAGEILHLVGPNGAGKSTLLARMAGLTSGEGSIRFGGAPLEAWATATLAQHRAYLAQQQNPPFAMPVWHYLTLHQPDKTRTGQLNEVADMLGLGDKLGRSVNQLSGGEWQRVRLAAVVLQIHPDANPVGQLLLLDEPMNSLDVAQQNALDRVLHHLCQAGIAIVMSSHDLNHTLRHAHKAWLLKRGKLIACGRREEVLTPSYLAQAYGLRFRRLDVEGHPMLISAT | not soluble |
| MSQLPGLSRETRESIAMYHLRVPQTEEELERYYQFRWEMLRKPLHQPKGSERDAWDAMAHHQMVVDEQGNLVAVGRLYINADNEASIRFMAVHPDVQDKGLGTLMAMTLESVARQEGVKRVTCSAREDAVEFFAKLGFVNQGEITTPTTTPIRHFLMIKPVATLDDILHRGDWCAQLQQAWYEHIPLSEKMGVRIQQYTGQKFITTMPETGNQNPHHTLFAGSLFSLATLTGWGLIWLMLRERHLGGTIILADAHIRYSKPISGKPHAVADLGALSGDLDRLARGRKARVQMQVEIFGDETPGAVFEGTYIVLPAKPFGPYEEGGNEEELEHHHHHH | not soluble |
| MSQLRADKKGTHRVAFDRNKKKLLKAATVCGICGKPVDKSLKYPHPLSAAIDHIVPIAKGGHPSALENLQLTHWQCNRQKSDKLFANQASNEPKTIGNRNLPQSRDWSSFAFKKLEHHHHHH | soluble |
| MSQMAQSLRSQFATDKQVLQKFLNLDQKGMYQALYIWIDGSGENIRAKTRTFDFEPTDPEKLPIWNFDGSSTGQAEGADSDVYLKPVAIYPDPFRQGKNKLVMCETYDNKKKPTATNYRQRCKEVMEKAADQHPWFGMEQEYTLLDIDGHPFGWPKNGFPGPQGPYYCGVGANKVYGRDIVEAHYRACLYAGIQISGTNAEVMPGQWEFQVGPCEGIQMGDQLWVARYLLQRVAEEFGVIASFDCKPIKGDWNGAGCHTNFSTDKMRNPGGIDEIMSAINKLSLVHPQHIAYYDPHGGKDNERRLTGLHETASIDKFSYGVASRASSIRIPRSTDDDGYGYFEDRRPSSNCDPYTVTGALVRTVCLEGAERKLSMMYVPSQAPNITKH | not soluble |
| MSQNASVGIVMPQKIPFEMPLVLENGKTLPRFDLMIETYGELNAEKNNAVLICHALSGNHHVAGRHSAEDKYTGWWDNMVGPGKPIDTERFFVVGLNNLGGCDGSSGPLSINPETGREYGADFPVVTVKDWVKSQAALADYLGIEQWAAIVGGSLGGMQALQWTISYPERVRHALVIASAPKLSTQNIAFNDVARQAILTDPDFNEGHYRSHNTVPARGLRIARMMGHITYLAEDGLGKKFGRDLRSNGYQYGFGVEFEVESYLRYQGDKFVGRFDANTYLLMTKALDYFDPAADFGDSLTRALQNVKAKFFVASFSTDWRFAPERSHELVKALIAAQKSVQYIEVKSAHGHDAFLMEDEAYMRAVAAYMNNVYKECQQ | not soluble |
| MSQRVSYYEIAPEGMKIMMDMEKYTKQSSINRTTRELIKIRVSQMNGCAFCIDMHTSDARKMGETEQRIYCLHAWNECDFYSPEEKAALELSEHITLIPSKRVPDELYHRVREHYDEEQYVDLVLIINQINSWNRISIAMGNRAASK | soluble |
| MSQSKVAMKKDSMRKNKKLVINIALDKEVLASRVEADHDLGSVRDEKERLESSERRREVCSKAEDIVDKAIDNHSRVRGDGIMREADVGTGLSGALNRLREQGTFKEEGKVVGVKDNNHEDDRFKDRFKDIQIQRVNKWGRIMTEKEAYRSLCHGFHGKGPGKKKQEKQRKKHEDKSKQMESSERSVERIREIHAISKTPYIVL | soluble |
| MSQVQNNSSVSELLASNSGSIKSYRKDEEDPQDRFLKLLVTQMQNQDPLSPMDNAEVTSQMAQISTVSGIDKLNTTLEKLVADSDARRSFEAATMIGRGVLVPGTDMQLENQAAIGGFELAESVDKLTVTVKDSAGITVREIDLGAQAAGVGTFVWDGMANNGNAAADGQYSFALKAIRADKEVSSSALAFGSVSSAQAGKDGALLEVGRLGYVGMDAVKKIF | not soluble |
| MSQYERFDSVLLSMAQQLSGGVPEMLDVLFEFLSRKTDFYSGAGVDQARTLLLEKFDKHGGKAMKEAEEAKKRKEEQERKLAERRAAQKAKEEEEFRNAKVVEVTDEEAAAFEKEQAKNSVENLEKFVDNEGETSKDAEVEDEDSKLMKPNSGNGADLAKYQWTQTLQELEVKIPIAAGFAIKSRDVVVKIEKTSVSVGLKNQAPIVDGKLPHAIKVENCNWVIENGKAIVLTLEKINDMEWWNRFLDSDPPINTKEVKPENSKLSDLDGETRAMVEKMMYDQRQKEMGLPTSDEKKKHDMLQQFMKQHPEMDFSNAKIG | soluble |
| MSQYVVCALYKFVELNNYQELREPLLALMEKHHIRGTLLLAGEGINGTVASDRAGIDTLLEWLNTEPRLTGTVYKESYSETQPFNRTKVKLKKEIVTLGVEGIDPRHVVGTYVKPQDWNDLIADPEVFVVDTRNDYEIEIGTFKGAVNPNTETFREFPDYVKENMDPAKHKKVAMFCTGGIRCEKSTAYMKEQGFEEVYHLEGGILKYLEEVPQEESMWEGDCYVFDGRVAVNHQLEKADYDLCNACRLPITDEDKQSELFEQGVSCPKCHGKHSEEQVERFREREKQVSLANQRGEQHVGGESAKQRAQRREAKLAKKAAQRKQALEHHHHHH | soluble |
| MSRFDSGLPSVRQVQLLIKDQTPVEIKLLTGDSLFGTIRWQDTDGLGLVDDSERSTIVRLAAIAYITPRR | soluble |
| MSRPLGFIGYEFGDDEMFVQQMIEKKSNAEQAKMLEQQKKMLECTETMPEESEPVPMKCLDFEEAFQSESVSKGYESPYKNISFLKEDAVTVNTMSHCPADDIAKLIRNIQNSVYTLGIEEARQCRRGKLLNVLKPTGSASPRYLQPTPPKNVAEETTGSQ | not soluble |
| MSRRKAGSAPRRVEPAPAANPDDEMEMQDLVIELKPEPDAQPQQAPRLGPFSPKEVSSAGRFGGEPHHSPGPMPAGAALLALGPRNPWTLWTPLTPNYPDRQPWTDKHPDLLTCGRCLQTFPLEAITAFMDHKKLGCQLFRGPSRGQGSEREELKALSCLRCGKQFTVAWKLLRHAQWDHGLSIYQTESEAPEAPLLGLAEVAAAVSAVVGPAAEAKSPRASGSGLTRRSPTCPVCKKTLSSFSNLKVHMRSHTGERPYACDQCPYACAQSSKLNRHKKTHRQVPPQSPLMADTSQEQASAAPPEPAVHAAAPTSTLPCSGGEGAGAAATAGVQEPGAPGSGAQAGPGGDTWGAITTEQRTDPANSQKASPKKMPKSGGKSRGPGGSCEFCGKHFTNSSNLTVHRRSHTGERPYTCEFCNYACAQSSKLNRHRRMHGMTPGSTRFECPHCHVPFGLRATLDKHLRQKHPEAAGEA | not soluble |
| MSRRSSSSDSAVYVNFLERERRADVEKAARLYETRRDRVEPSYVFPAPSGEKRVGPNSNTGQKGVVGSYPVSIDYLTVVFSYARLAEAGYFDEPRFLLYLLFGLSVDDVIVGSHTSVRWHFYNSSASIIDSNGDLVGKIGWDGNADSYCISLTGSACRYIHDWSKVKRSLASLDARITRCDVAYDDYDGILGTVRHHEALAREHLAPAGGCLLFSSGGTPPRTRFLDDHGGGSGCTLYVGQRGHKQLCIYEKGKQLGVAESPWVRYEVRLYAKHAVIPFDLLEEPMRYLRGSYDYLCQLFSSVVVSPVSRIRTVVKHVEATGEALVRWLRRQVGPALGVLRQALGCGFSDFIVDRVEREGLPSRFRRICRGGDLLAYLRETLIDCSVGVCV | not soluble |
